Starred links: 1 amine or outer side, 2 acyl side, 3 side chain; linkers in the order of their positions; H or OH if unused. Non-standard residues stand in square brackets, D forms with d. Groups on a side chain read outwards from the residue. No end group written: not given here. *: point of attachment. C18 diacid = O=C(O)CCCCCCCCCCCCCCCCC(=O)*; γGlu = O=C(O)[C@H](CCC(=O)[*:2])N[*:1]; εLys = N[C@@H](CCCCN[*:1])C(=O)[*:2]; AEEA = NCCOCCOCC(=O)O; Aib = CC(C)(N)C(=O)O
B1: Compound No. 32 (peptide)
peptide: Y[Aib]EGTFTSDYSILLEK([AEEA-AEEA-γGlu-C18 diacid])QAAREFIEWLLAGGPSSGAPPPS-OH
modifications: N-terminus assumed
SMILES: CC[C@H](C)[C@H](NC(=O)[C@H](Cc1ccccc1)NC(=O)[C@H](CCC(=O)O)NC(=O)[C@H](CCCNC(=N)N)NC(=O)[C@H](C)NC(=O)[C@H](C)NC(=O)[C@H](CCC(N)=O)NC(=O)[C@H](CCCCNC(=O)COCCOCCNC(=O)COCCOCCNC(=O)CC[C@H](NC(=O)CCCCCCCCCCCCCCCCC(=O)O)C(=O)O)NC(=O)[C@H](CCC(=O)O)NC(=O)[C@H](CC(C)C)NC(=O)[C@H](CC(C)C)NC(=O)[C@@H](NC(=O)[C@H](CO)NC(=O)[C@H](Cc1ccc(O)cc1)NC(=O)[C@H](CC(=O)O)NC(=O)[C@H](CO)NC(=O)[C@@H](NC(=O)[C@H](Cc1ccccc1)NC(=O)[C@@H](NC(=O)CNC(=O)[C@H](CCC(=O)O)NC(=O)C(C)(C)NC(=O)[C@@H](N)Cc1ccc(O)cc1)[C@@H](C)O)[C@@H](C)O)[C@@H](C)CC)C(=O)N[C@@H](CCC(=O)O)C(=O)N[C@@H](Cc1c[nH]c2ccccc12)C(=O)N[C@@H](CC(C)C)C(=O)N[C@@H](CC(C)C)C(=O)N[C@@H](C)C(=O)NCC(=O)NCC(=O)N1CCC[C@H]1C(=O)N[C@@H](CO)C(=O)N[C@@H](CO)C(=O)NCC(=O)N[C@@H](C)C(=O)N1CCC[C@H]1C(=O)N1CCC[C@H]1C(=O)N1CCC[C@H]1C(=O)N[C@@H](CO)C(=O)O
B2: Compound No. 33 (peptide)
peptide: Y[Aib]EGTVTSDYSILLEK([εLys-εLys-γGlu-C18 diacid])QAAREFINWLLAGGPSSGAPPPS-OH
modifications: N-terminus assumed
SMILES: CC[C@H](C)[C@H](NC(=O)[C@H](Cc1ccccc1)NC(=O)[C@H](CCC(=O)O)NC(=O)[C@H](CCCNC(=N)N)NC(=O)[C@H](C)NC(=O)[C@H](C)NC(=O)[C@H](CCC(N)=O)NC(=O)[C@H](CCCCNC(=O)[C@@H](N)CCCCNC(=O)[C@@H](N)CCCCNC(=O)CC[C@H](NC(=O)CCCCCCCCCCCCCCCCC(=O)O)C(=O)O)NC(=O)[C@H](CCC(=O)O)NC(=O)[C@H](CC(C)C)NC(=O)[C@H](CC(C)C)NC(=O)[C@@H](NC(=O)[C@H](CO)NC(=O)[C@H](Cc1ccc(O)cc1)NC(=O)[C@H](CC(=O)O)NC(=O)[C@H](CO)NC(=O)[C@@H](NC(=O)[C@@H](NC(=O)[C@@H](NC(=O)CNC(=O)[C@H](CCC(=O)O)NC(=O)C(C)(C)NC(=O)[C@@H](N)Cc1ccc(O)cc1)[C@@H](C)O)C(C)C)[C@@H](C)O)[C@@H](C)CC)C(=O)N[C@@H](CC(N)=O)C(=O)N[C@@H](Cc1c[nH]c2ccccc12)C(=O)N[C@@H](CC(C)C)C(=O)N[C@@H](CC(C)C)C(=O)N[C@@H](C)C(=O)NCC(=O)NCC(=O)N1CCC[C@H]1C(=O)N[C@@H](CO)C(=O)N[C@@H](CO)C(=O)NCC(=O)N[C@@H](C)C(=O)N1CCC[C@H]1C(=O)N1CCC[C@H]1C(=O)N1CCC[C@H]1C(=O)N[C@@H](CO)C(=O)O
B3: Compound No. 34 (peptide)
peptide: Y[Aib]EGTFTSDYSIILEK([εLys-εLys-γGlu-C18 diacid])QAAREFINWLLAGGPSSGAPPPS-OH
modifications: N-terminus assumed
SMILES: CC[C@H](C)[C@H](NC(=O)[C@H](Cc1ccccc1)NC(=O)[C@H](CCC(=O)O)NC(=O)[C@H](CCCNC(=N)N)NC(=O)[C@H](C)NC(=O)[C@H](C)NC(=O)[C@H](CCC(N)=O)NC(=O)[C@H](CCCCNC(=O)[C@@H](N)CCCCNC(=O)[C@@H](N)CCCCNC(=O)CC[C@H](NC(=O)CCCCCCCCCCCCCCCCC(=O)O)C(=O)O)NC(=O)[C@H](CCC(=O)O)NC(=O)[C@H](CC(C)C)NC(=O)[C@@H](NC(=O)[C@@H](NC(=O)[C@H](CO)NC(=O)[C@H](Cc1ccc(O)cc1)NC(=O)[C@H](CC(=O)O)NC(=O)[C@H](CO)NC(=O)[C@@H](NC(=O)[C@H](Cc1ccccc1)NC(=O)[C@@H](NC(=O)CNC(=O)[C@H](CCC(=O)O)NC(=O)C(C)(C)NC(=O)[C@@H](N)Cc1ccc(O)cc1)[C@@H](C)O)[C@@H](C)O)[C@@H](C)CC)[C@@H](C)CC)C(=O)N[C@@H](CC(N)=O)C(=O)N[C@@H](Cc1c[nH]c2ccccc12)C(=O)N[C@@H](CC(C)C)C(=O)N[C@@H](CC(C)C)C(=O)N[C@@H](C)C(=O)NCC(=O)NCC(=O)N1CCC[C@H]1C(=O)N[C@@H](CO)C(=O)N[C@@H](CO)C(=O)NCC(=O)N[C@@H](C)C(=O)N1CCC[C@H]1C(=O)N1CCC[C@H]1C(=O)N1CCC[C@H]1C(=O)N[C@@H](CO)C(=O)O
B4: Compound No. 43 (peptide)
peptide: Y[Aib]EGTFTSDYSILLEEQAAREFIEWLLAGGPSK([εLys-εLys-γGlu-C18 diacid])GAPPPS-OH
modifications: N-terminus assumed
SMILES: CC[C@H](C)[C@H](NC(=O)[C@H](Cc1ccccc1)NC(=O)[C@H](CCC(=O)O)NC(=O)[C@H](CCCNC(=N)N)NC(=O)[C@H](C)NC(=O)[C@H](C)NC(=O)[C@H](CCC(N)=O)NC(=O)[C@H](CCC(=O)O)NC(=O)[C@H](CCC(=O)O)NC(=O)[C@H](CC(C)C)NC(=O)[C@H](CC(C)C)NC(=O)[C@@H](NC(=O)[C@H](CO)NC(=O)[C@H](Cc1ccc(O)cc1)NC(=O)[C@H](CC(=O)O)NC(=O)[C@H](CO)NC(=O)[C@@H](NC(=O)[C@H](Cc1ccccc1)NC(=O)[C@@H](NC(=O)CNC(=O)[C@H](CCC(=O)O)NC(=O)C(C)(C)NC(=O)[C@@H](N)Cc1ccc(O)cc1)[C@@H](C)O)[C@@H](C)O)[C@@H](C)CC)C(=O)N[C@@H](CCC(=O)O)C(=O)N[C@@H](Cc1c[nH]c2ccccc12)C(=O)N[C@@H](CC(C)C)C(=O)N[C@@H](CC(C)C)C(=O)N[C@@H](C)C(=O)NCC(=O)NCC(=O)N1CCC[C@H]1C(=O)N[C@@H](CO)C(=O)N[C@@H](CCCCNC(=O)[C@@H](N)CCCCNC(=O)[C@@H](N)CCCCNC(=O)CC[C@H](NC(=O)CCCCCCCCCCCCCCCCC(=O)O)C(=O)O)C(=O)NCC(=O)N[C@@H](C)C(=O)N1CCC[C@H]1C(=O)N1CCC[C@H]1C(=O)N1CCC[C@H]1C(=O)N[C@@H](CO)C(=O)O
B5: Compound No. 44 (peptide)
peptide: Y[Aib]EGTFTSDYSILLEEQAAREFINWLLAGGPSK([εLys-εLys-γGlu-C18 diacid])GAPPPS-OH
modifications: N-terminus assumed
SMILES: CC[C@H](C)[C@H](NC(=O)[C@H](Cc1ccccc1)NC(=O)[C@H](CCC(=O)O)NC(=O)[C@H](CCCNC(=N)N)NC(=O)[C@H](C)NC(=O)[C@H](C)NC(=O)[C@H](CCC(N)=O)NC(=O)[C@H](CCC(=O)O)NC(=O)[C@H](CCC(=O)O)NC(=O)[C@H](CC(C)C)NC(=O)[C@H](CC(C)C)NC(=O)[C@@H](NC(=O)[C@H](CO)NC(=O)[C@H](Cc1ccc(O)cc1)NC(=O)[C@H](CC(=O)O)NC(=O)[C@H](CO)NC(=O)[C@@H](NC(=O)[C@H](Cc1ccccc1)NC(=O)[C@@H](NC(=O)CNC(=O)[C@H](CCC(=O)O)NC(=O)C(C)(C)NC(=O)[C@@H](N)Cc1ccc(O)cc1)[C@@H](C)O)[C@@H](C)O)[C@@H](C)CC)C(=O)N[C@@H](CC(N)=O)C(=O)N[C@@H](Cc1c[nH]c2ccccc12)C(=O)N[C@@H](CC(C)C)C(=O)N[C@@H](CC(C)C)C(=O)N[C@@H](C)C(=O)NCC(=O)NCC(=O)N1CCC[C@H]1C(=O)N[C@@H](CO)C(=O)N[C@@H](CCCCNC(=O)[C@@H](N)CCCCNC(=O)[C@@H](N)CCCCNC(=O)CC[C@H](NC(=O)CCCCCCCCCCCCCCCCC(=O)O)C(=O)O)C(=O)NCC(=O)N[C@@H](C)C(=O)N1CCC[C@H]1C(=O)N1CCC[C@H]1C(=O)N1CCC[C@H]1C(=O)N[C@@H](CO)C(=O)O
B6: Compound No. 31 (peptide)
peptide: Y[Aib]EGTFTSDYSILLEK([εLys-εLys-γGlu-C18 diacid])QAAREFIEWLLAGGPSSGAPPPS-OH
modifications: N-terminus assumed
SMILES: CC[C@H](C)[C@H](NC(=O)[C@H](Cc1ccccc1)NC(=O)[C@H](CCC(=O)O)NC(=O)[C@H](CCCNC(=N)N)NC(=O)[C@H](C)NC(=O)[C@H](C)NC(=O)[C@H](CCC(N)=O)NC(=O)[C@H](CCCCNC(=O)[C@@H](N)CCCCNC(=O)[C@@H](N)CCCCNC(=O)CC[C@H](NC(=O)CCCCCCCCCCCCCCCCC(=O)O)C(=O)O)NC(=O)[C@H](CCC(=O)O)NC(=O)[C@H](CC(C)C)NC(=O)[C@H](CC(C)C)NC(=O)[C@@H](NC(=O)[C@H](CO)NC(=O)[C@H](Cc1ccc(O)cc1)NC(=O)[C@H](CC(=O)O)NC(=O)[C@H](CO)NC(=O)[C@@H](NC(=O)[C@H](Cc1ccccc1)NC(=O)[C@@H](NC(=O)CNC(=O)[C@H](CCC(=O)O)NC(=O)C(C)(C)NC(=O)[C@@H](N)Cc1ccc(O)cc1)[C@@H](C)O)[C@@H](C)O)[C@@H](C)CC)C(=O)N[C@@H](CCC(=O)O)C(=O)N[C@@H](Cc1c[nH]c2ccccc12)C(=O)N[C@@H](CC(C)C)C(=O)N[C@@H](CC(C)C)C(=O)N[C@@H](C)C(=O)NCC(=O)NCC(=O)N1CCC[C@H]1C(=O)N[C@@H](CO)C(=O)N[C@@H](CO)C(=O)NCC(=O)N[C@@H](C)C(=O)N1CCC[C@H]1C(=O)N1CCC[C@H]1C(=O)N1CCC[C@H]1C(=O)N[C@@H](CO)C(=O)O

Assays:
[1] = biological target: human GLP-1 receptor (human, UniProt P43220 24-463); assay: cell-based or functional assay
[2] = biological target: T1, human GIP receptor (human, UniProt P48546 22-466); assay: cell-based or functional assay
T1 sequence (looked up): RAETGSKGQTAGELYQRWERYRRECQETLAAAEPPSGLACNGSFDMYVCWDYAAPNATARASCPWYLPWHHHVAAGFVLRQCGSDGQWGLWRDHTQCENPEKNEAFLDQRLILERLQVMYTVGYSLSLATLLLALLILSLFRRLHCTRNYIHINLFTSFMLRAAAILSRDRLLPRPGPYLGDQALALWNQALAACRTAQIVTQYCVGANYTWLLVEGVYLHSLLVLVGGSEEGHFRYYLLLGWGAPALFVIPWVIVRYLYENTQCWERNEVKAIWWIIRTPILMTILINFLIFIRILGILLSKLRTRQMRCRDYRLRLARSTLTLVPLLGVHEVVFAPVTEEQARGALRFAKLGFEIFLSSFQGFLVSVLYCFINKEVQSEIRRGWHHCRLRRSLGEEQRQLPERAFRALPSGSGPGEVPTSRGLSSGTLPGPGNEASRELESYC

| Binder | hGLP-1R, CRE Luc 0% HSA EC50 (pM) [1] | hGLP-1R, CRE Luc 1% HSA EC50 (pM) [1] | hGIPR, CRE Luc 0% HSA EC50 (pM) [2] | hGIPR, CRE Luc 1% HSA EC50 (pM) [2] |
| --- | --- | --- | --- | --- |
| B1 | 5 pM | 982 pM | 7.1 pM | 679 pM |
| B2 | 14.8 pM | 361 pM | 2.9 pM | 103 pM |
| B3 | 6 pM | 186 pM | 8.3 pM | 213 pM |
| B4 | 4 pM | 360 pM | 5.6 pM | 444 pM |
| B5 | 4.2 pM | 241 pM | 5.7 pM | 365 pM |
| B6 | 4.2 pM | 202 pM | 4.7 pM | 188 pM |

Source: patent US20230272029A1, “CO-AGONISTS AT GLP-1 AND GIP RECEPTORS SUITABLE FOR ORAL DELIVERY” (Novo Nordisk A/S, priority 2020, published 2023)
